# Earlier results in PMC2164963.
# Target: EBNA-1 (Epstein-Barr virus) (UniProt P03211)
substance,measurement,value
EBNA-1 (from UniProt P03211),Kd,1 nM
